The target in test [1] is T1, rat amylin receptor (rat calcitonin receptor + rat RAMP 3) (rat, UniProt P32214 25-516; Q9JJ73 23-147).
T1 construct: whole, on cells; also called rAmylin-R; rat amylin 3(a) receptor
T1 sequence (looked up) 1: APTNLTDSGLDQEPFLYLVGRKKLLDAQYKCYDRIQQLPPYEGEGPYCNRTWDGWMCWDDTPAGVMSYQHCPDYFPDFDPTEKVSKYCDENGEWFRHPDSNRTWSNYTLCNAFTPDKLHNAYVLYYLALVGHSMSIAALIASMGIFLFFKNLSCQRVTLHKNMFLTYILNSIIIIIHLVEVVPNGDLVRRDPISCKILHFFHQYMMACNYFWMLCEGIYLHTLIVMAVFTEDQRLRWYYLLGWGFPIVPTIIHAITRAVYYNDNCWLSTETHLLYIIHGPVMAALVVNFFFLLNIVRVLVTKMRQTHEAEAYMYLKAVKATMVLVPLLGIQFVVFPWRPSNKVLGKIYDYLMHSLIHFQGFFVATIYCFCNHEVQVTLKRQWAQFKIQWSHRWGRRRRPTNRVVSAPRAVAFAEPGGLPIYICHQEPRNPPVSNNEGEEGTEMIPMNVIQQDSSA
T1 sequence (looked up) 2: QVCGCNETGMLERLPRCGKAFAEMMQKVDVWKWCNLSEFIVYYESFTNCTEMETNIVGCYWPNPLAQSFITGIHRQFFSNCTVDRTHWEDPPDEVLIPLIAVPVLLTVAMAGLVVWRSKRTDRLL
Put plainly: SPA competition with 125I-rat amylin, membranes of BHK cells with rat calcitonin receptor + rat RAMP3 (Assay VI).

The next test deals with T2, rat calcitonin receptor (rat, UniProt P32214 25-516).
T2 construct: whole, on cells; also called rCTR; rat calcitonin (a) receptor
T2 sequence (looked up): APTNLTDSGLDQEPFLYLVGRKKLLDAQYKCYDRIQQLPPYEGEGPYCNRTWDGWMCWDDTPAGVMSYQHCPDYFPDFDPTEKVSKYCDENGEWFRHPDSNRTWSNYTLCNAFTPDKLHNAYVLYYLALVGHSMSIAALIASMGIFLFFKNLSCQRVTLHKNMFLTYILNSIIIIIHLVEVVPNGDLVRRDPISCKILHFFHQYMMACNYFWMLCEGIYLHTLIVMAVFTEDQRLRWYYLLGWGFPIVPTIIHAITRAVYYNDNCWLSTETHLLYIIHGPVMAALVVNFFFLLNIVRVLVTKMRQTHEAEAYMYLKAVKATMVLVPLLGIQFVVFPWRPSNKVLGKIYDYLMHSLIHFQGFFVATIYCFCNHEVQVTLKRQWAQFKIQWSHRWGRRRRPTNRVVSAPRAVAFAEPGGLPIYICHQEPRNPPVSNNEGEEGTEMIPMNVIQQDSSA
Put plainly: SPA competition with 125I-calcitonin, membranes of BHK cells with rat calcitonin receptor (Assay VIII).

Numbered stars: 1 amine (or outer) side, 2 acyl side, 3 side chain; on linkers, the order of the positions; unused ones are H or OH. Bridge positions count the residues as written; N and C are the ends. Side chains are listed from the residue outwards. Ends that are not written are not given here. * marks the point of attachment. C20 diacid = O=C(O)CCCCCCCCCCCCCCCCCCC(=O)*; γGlu = O=C(O)[C@H](CCC(=O)[*:2])N[*:1]

For orientation: IC50 means the concentration that gives 50% inhibition.

B1: N^ε1-[(4S)-4-carboxy-4-[[(4S)-4-carboxy-4-(19-carboxynonadecanoylamino)butanoyl]amino]butanoyl]-[Asp14,Arg17,Pro21,Pro27,Arg35]-h-amylin (peptide)
peptide: K([γGlu-γGlu-C20 diacid])CNTATCATQRLADFLRHSSPNFGAIPSSTNVGSRTY-NH2
modifications: disulfide 2-7; N-terminus assumed
SMILES: CC[C@H](C)[C@H](NC(=O)[C@H](C)NC(=O)CNC(=O)[C@H](Cc1ccccc1)NC(=O)[C@H](CC(N)=O)NC(=O)[C@@H]1CCCN1C(=O)[C@H](CO)NC(=O)[C@H](CO)NC(=O)[C@H](Cc1c[nH]cn1)NC(=O)[C@H](CCCNC(=N)N)NC(=O)[C@H](CC(C)C)NC(=O)[C@H](Cc1ccccc1)NC(=O)[C@H](CC(=O)O)NC(=O)[C@H](C)NC(=O)[C@H](CC(C)C)NC(=O)[C@H](CCCNC(=N)N)NC(=O)[C@H](CCC(N)=O)NC(=O)[C@@H](NC(=O)[C@H](C)NC(=O)[C@@H]1CSSC[C@H](NC(=O)[C@@H](N)CCCCNC(=O)CC[C@H](NC(=O)CC[C@H](NC(=O)CCCCCCCCCCCCCCCCCCC(=O)O)C(=O)O)C(=O)O)C(=O)N[C@@H](CC(N)=O)C(=O)N[C@@H]([C@@H](C)O)C(=O)N[C@@H](C)C(=O)N[C@@H]([C@@H](C)O)C(=O)N1)[C@@H](C)O)C(=O)N1CCC[C@H]1C(=O)N[C@@H](CO)C(=O)N[C@@H](CO)C(=O)N[C@H](C(=O)N[C@@H](CC(N)=O)C(=O)N[C@H](C(=O)NCC(=O)N[C@@H](CO)C(=O)N[C@@H](CCCNC(=N)N)C(=O)N[C@H](C(=O)N[C@@H](Cc1ccc(O)cc1)C(N)=O)[C@@H](C)O)C(C)C)[C@@H](C)O
notes: synthetic analogue of human amylin; also called compound 52
In the case of B1, the values for the IC50 (in test [1]; in the test with rat calcitonin receptor) were 0.335 nM and 159 nM, respectively.

Source of the values: US20140087995A1 (published 2014).
